One block for each molecule: values may come before it.
Tests used:
OSBP = target: T1, OSBP (Homo sapiens, UniProt P22059); assay: liposome sterol transfer, DHE to dansyl-PE FRET; type: biochemical; conditions: lipid transfer substrate (not catalysis); with RELCH, Rab11a(Q70A)-His/GTP and myristoylated Arf1(Q71L)-Flag; RE-like donor and Golgi-like PI4P acceptor liposomes; 200 nM OSBP; pH 7.2; room temperatur
T1 construct: full-length, Flag-tagged, tag kept; 807 residues (deletion series ends at 807)

His-RELCH [1] = target: T2, His-RELCH (mouse, UniProt Q148V7 1-1216); assay: pull-down; 0.5 µg His-RELCH on Ni-NTA beads, 0.5 µg Flag-OSBP in 20 mM Hepes-NaOH pH 7.5, 100 mM NaCl, 5 mM MgCl2 with ethanol, cholesterol or 25-OH, 1 h at 4°C; immunoblot with His and Flag antibodies; conditions: both partners purified
T2 construct: RELCH/KIAA1468, mouse, cDNA NM_173187.3 amplified from a mouse embryo cDNA library; no limits are stated for this construct (deletion constructs are named by their ranges); also called purified recombinant RELCH; His-RELCH protein; source: E. coli XL-1 blue (pQE32tev), purified (Ni-NTA agarose); not shown: His, N-terminal, kept
T2 sequence (looked up): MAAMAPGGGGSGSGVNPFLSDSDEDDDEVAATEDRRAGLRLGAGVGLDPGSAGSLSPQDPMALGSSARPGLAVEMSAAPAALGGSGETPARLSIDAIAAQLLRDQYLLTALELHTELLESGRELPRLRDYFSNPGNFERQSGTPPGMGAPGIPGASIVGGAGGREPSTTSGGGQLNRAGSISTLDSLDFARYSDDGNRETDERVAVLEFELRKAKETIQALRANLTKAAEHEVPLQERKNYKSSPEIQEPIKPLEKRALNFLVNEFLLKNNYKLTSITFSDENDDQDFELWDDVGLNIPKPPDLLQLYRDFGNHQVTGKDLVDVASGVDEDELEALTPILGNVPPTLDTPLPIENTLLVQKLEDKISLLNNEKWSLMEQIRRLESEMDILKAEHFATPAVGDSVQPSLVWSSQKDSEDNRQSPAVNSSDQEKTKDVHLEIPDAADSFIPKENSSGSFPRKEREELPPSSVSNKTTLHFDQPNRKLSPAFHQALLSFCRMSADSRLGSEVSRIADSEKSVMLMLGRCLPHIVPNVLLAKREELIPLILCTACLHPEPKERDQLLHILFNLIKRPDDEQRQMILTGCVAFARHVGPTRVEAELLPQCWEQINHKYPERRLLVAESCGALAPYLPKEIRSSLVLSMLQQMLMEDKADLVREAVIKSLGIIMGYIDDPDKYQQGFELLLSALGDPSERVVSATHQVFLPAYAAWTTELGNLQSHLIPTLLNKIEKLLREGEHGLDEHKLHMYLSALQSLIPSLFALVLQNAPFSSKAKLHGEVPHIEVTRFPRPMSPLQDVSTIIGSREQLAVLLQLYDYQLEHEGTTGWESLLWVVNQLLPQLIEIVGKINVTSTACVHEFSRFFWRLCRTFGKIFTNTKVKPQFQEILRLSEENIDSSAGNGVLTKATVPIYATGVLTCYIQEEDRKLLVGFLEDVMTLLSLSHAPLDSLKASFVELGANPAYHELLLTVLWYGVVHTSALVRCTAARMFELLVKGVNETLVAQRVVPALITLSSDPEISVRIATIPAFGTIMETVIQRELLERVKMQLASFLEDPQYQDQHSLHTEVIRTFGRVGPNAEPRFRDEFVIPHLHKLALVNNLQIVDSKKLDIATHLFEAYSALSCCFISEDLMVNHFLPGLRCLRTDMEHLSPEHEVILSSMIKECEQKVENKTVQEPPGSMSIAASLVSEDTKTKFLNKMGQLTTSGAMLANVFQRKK

untagged RELCH = target: T3, untagged RELCH (mouse, UniProt Q148V7 1-1216); assay: silica bead-based liposome binding assay; silica beads coated with RE-like liposomes (DOGS-NTA(Ni), Rho-PE) prebound with 5 µM Rab11a (Q70A)-His, then 200 nM untagged RELCH, 30 min at 4°C in HKM buffer with 1 mM GTP and BSA; stained with Rab11 or RELCH antibodies; conditions: both partners purified
T3 construct: RELCH/KIAA1468, mouse, cDNA NM_173187.3, with an N-terminal PreScission protease recognition site; no limits are stated; Residues of the PreScission site may be left at the N-terminus after cleavage; source: E. coli XL-1 blue (pQE32), purified (Ni-NTA agarose), His tag removed with PreScission protease; not shown: His, N-terminal, cleaved
T3 sequence (looked up): T2 sequence (looked up)

[2] = target: T4, GST-RELCH_(497-779) (Rab-binding domain) (mouse, UniProt Q148V7 497-779); assay: pull-down; 10 µg GST-RELCH (RBD) on 20 µl Glutathione Sepharose 4B, 10 µg Rab11a (Q70A)-His loaded with GTP in 500 µl; immunoblot with Rab11 and GST antibodies; conditions: both partners purified
T4 construct: also called GST-RELCH (RBD); source: E. coli Rosetta II (pFAT2), purified (Ni-NTA agarose); not shown: GST, N-terminal, kept
T4 sequence (looked up): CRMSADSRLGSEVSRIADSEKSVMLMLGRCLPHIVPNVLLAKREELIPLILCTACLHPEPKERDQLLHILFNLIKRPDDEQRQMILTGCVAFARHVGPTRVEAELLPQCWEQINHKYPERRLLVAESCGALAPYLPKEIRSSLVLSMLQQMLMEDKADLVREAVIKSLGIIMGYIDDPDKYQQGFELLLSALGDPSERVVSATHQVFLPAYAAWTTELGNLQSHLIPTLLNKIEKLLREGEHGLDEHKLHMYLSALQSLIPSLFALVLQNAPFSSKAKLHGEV

His-RELCH [3] = target: T2, His-RELCH; assay: pull-down; 10 µg GST-Rab11a Q70A (GTP) on 20 µl Glutathione Sepharose 4B, 20 µg His-RELCH in 500 µl; immunoblot with RELCH and GST antibodies; conditions: both partners purified

T1 sequence (P84077 2-181 Q71L partner, one chain of several): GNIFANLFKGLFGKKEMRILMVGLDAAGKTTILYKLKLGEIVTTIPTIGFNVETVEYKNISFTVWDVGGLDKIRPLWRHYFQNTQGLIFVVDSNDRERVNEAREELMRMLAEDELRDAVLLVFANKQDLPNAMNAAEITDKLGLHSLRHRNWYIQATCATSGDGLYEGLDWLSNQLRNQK

Molecule: CC(C)[C@@H](C)/C=C/[C@@H](C)[C@H]1CC[C@H]2C3=CC=C4C[C@@H](O)CC[C@]4(C)C3=CC[C@]12C [DHE, dehydroergosterol]
liposome sterol transfer, DHE to dansyl-PE FRET (OSBP): the DHE transfer occurred in a RELCH dose-dependent manner

B1: Flag-OSBP, full length (natural protein, human, UniProt P22059 1-807, looked up)
chain: MAATELRGVVGPGPAAIAALGGGGAGPPVVGGGGGRGDAGPGSGAASGTVVAAAAGGPGPGAGGVAAAGPAPAPPTGGSGGSGAGGSGSAREGWLFKWTNYIKGYQRRWFVLSNGLLSYYRSKAEMRHTCRGTINLATANITVEDSCNFIISNGGAQTYHLKASSEVERQRWVTALELAKAKAVKMLAESDESGDEESVSQTDKTELQNTLRTLSSKVEDLSTCNDLIAKHGTALQRSLSELESLKLPAESNEKIKQVNERATLFRITSNAMINACRDFLMLAQTHSKKWQKSLQYERDQRIRLEETLEQLAKQHNHLERAFRGATVLPANTPGNVGSGKDQCCSGKGDMSDEDDENEFFDAPEIITMPENLGHKRTGSNISGASSDISLDEQYKHQLEETKKEKRTRIPYKPNYSLNLWSIMKNCIGKELSKIPMPVNFNEPLSMLQRLTEDLEYHELLDRAAKCENSLEQLCYVAAFTVSSYSTTVFRTSKPFNPLLGETFELDRLEENGYRSLCEQVSHHPPAAAHHAESKNGWTLRQEIKITSKFRGKYLSIMPLGTIHCIFHATGHHYTWKKVTTTVHNIIVGKLWIDQSGEIDIVNHKTGDKCNLKFVPYSYFSRDVARKVTGEVTDPSGKVHFALLGTWDEKMECFKVQPVIGENGGDARQRGHEAEESRVMLWKRNPLPKNAENMYYFSELALTLNAWESGTAPTDSRLRPDQRLMENGRWDEANAEKQRLEEKQRLSRKKREAEAMKATEDGTPYDPYKALWFERKKDPVTKELTHIYRGEYWECKEKQDWSSCPDIF
notes: OSBP, human, amplified from pOTB7-OSBP, in pcDNA5/FRT/TO-Flag; also called Flag-tagged OSBP; source: HEK293FT, transfected, in lysate; Flp-In–293, transfected, in lysate; not shown: Flag, N-terminal, kept
binding result (His-RELCH [1]): binds

Other lines, results leading:

binding result (untagged RELCH): binds | binding result [2]: binds
B2: Rab11a (Q70A)-His, loaded with GTP (natural protein, mouse, UniProt P62492 1-216, looked up)
chain: MGTRDDEYDYLFKVVLIGDSGVGKSNLLSRFTRNEFNLESKSTIGVEFATRSIQVDGKTIKAQIWDTAGAERYRAITSAYYRGAVGALLVYDIAKHLTYENVERWLKELRDHADSNIVIMLVGNKSDLRHLRAVPTDEARAFAEKNGLSFIETSALDSTNVEAAFQTILTEIYRIVSQKQMSDRRENDMSPSNNVVPIHVPPTTENKPKVQCCQNI
notes: Rab11a, mouse, GTP-locked mutant Q70A, cloned without a stop codon into pET28c; Loaded with GTP in the assays; on liposomes it is held through its His tag by DOGS-NTA(Ni); also called His6×-tagged Rab11a-GTP; Rab11a-GTP; source: E. coli Rosetta II (pET28c), purified (cOmplete His-tag purification resin, EDTA wash, nucleotide-free); not shown: His6, C-terminal, kept

binding result (His-RELCH [3]): binds
B3: GST-Rab11a Q70A, loaded with GTP (natural protein, UniProt P62491 1-216, looked up)
chain: B2 chain
notes: Rab11a; GTP-locked mutant Q70A; the pFAT2 His-GST-Rab constructs were made as in Haas et al., 2005 and Yoshimura et al., 2007; also called GTP-loaded Rab11a; GST-Rab11-GTP; source: E. coli Rosetta II (pFAT2), purified (Ni-NTA agarose); not shown: GST, N-terminal, kept

Reference: PMC5940305, “The Rab11-binding protein RELCH/KIAA1468 controls intracellular cholesterol distribution” (The Journal of Cell Biology, 2018)
